Results as given in PMC4550699.

What was measured:
[1] = target: RFP_PCNA2 (Arabidopsis thaliana) (UniProt Q9ZW35); experiment: FRET or BRET; FLIM-FRET in nuclei of transiently transformed N. benthamiana leaf cells; donor GFP fusion, acceptor RFP fusion; E = (1 - tauDA/tauD) x 100%; FRET efficiency of free GFP/RFP (1.19%) used as threshold
[2] = target: RFP_PCNA1 (Arabidopsis thaliana) (UniProt Q9M7Q7); experiment: as above
Sequence of UniProt Q9M7Q7 (Q9M7Q7 whole entry): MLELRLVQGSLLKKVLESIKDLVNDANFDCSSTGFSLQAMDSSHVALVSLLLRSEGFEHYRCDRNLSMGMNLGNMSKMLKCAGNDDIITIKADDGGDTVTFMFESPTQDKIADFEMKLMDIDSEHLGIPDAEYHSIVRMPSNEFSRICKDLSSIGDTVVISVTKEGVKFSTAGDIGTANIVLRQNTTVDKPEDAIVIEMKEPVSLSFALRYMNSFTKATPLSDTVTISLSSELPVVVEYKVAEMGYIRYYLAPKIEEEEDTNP

Sequence of UniProt Q9ZW35 (Q9ZW35 whole entry, the tested form may be a part): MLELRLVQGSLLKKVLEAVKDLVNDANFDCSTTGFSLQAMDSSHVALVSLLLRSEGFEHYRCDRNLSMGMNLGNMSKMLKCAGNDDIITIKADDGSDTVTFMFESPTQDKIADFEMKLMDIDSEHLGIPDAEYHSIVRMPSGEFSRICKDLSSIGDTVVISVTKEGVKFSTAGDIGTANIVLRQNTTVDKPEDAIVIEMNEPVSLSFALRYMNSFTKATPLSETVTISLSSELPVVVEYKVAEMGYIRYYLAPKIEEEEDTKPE

Work on “CycD6;1_GFP (from UniProt Q9ZR04 1-302) (natural protein)” yielded an FRET efficiency [1] of 2.87% and an FRET efficiency [2] of 4.1%.
“CycD4;2_GFP (from UniProt Q0WQN9 1-298) (natural protein)” showed an FRET efficiency [1] of 5.14% and an FRET efficiency [2] of 3.56%.
“CycD4;1_GFP (from UniProt Q8LGA1 1-308) (natural protein)” was tested, and the FRET efficiency [1] was 1.98% and the FRET efficiency [2] was 3.95%.
“CycD7;1_GFP (from UniProt Q9LZM0 1-341) (natural protein)” gave an FRET efficiency [1] of 3.75% and an FRET efficiency [2] of 6.25%.
